Measurements from patent publication US10654939.

Experiments:
[1] = target: rhesus CD40 expressed on HEK293A cells (rhesus monkey); test: FACS, HEK293A/rhesusCD40 cells
[2] = target: recombinant rhesus CD40 (ECD)-hFc (rhesus monkey); test: ELISA, rhCD40(ECD)-hFc coated
[3] = target: human CD40 expressed on cells (human) (UniProt P25942); test: FACS, HEK293A/humanCD40 cells
[4] = target: recombinant human CD40 (ECD)-his (human) (UniProt P25942); test: SPR (Biacore 8K), hCD40(ECD)-his coupled to chip, antibody injected
[5] = target: recombinant human CD40 (ECD)-his (human) (UniProt P25942); test: ELISA, hCD40(ECD)-his coated
[6] = target: human CD40 expressed on cells (human) (UniProt P25942); test: cell-based or functional assay

Sequence of RO7009789 (antibody) (VH): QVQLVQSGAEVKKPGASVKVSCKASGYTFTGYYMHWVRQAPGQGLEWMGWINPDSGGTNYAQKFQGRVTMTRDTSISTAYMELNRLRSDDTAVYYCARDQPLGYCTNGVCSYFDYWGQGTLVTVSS
Sequence of RO7009789 (antibody) (VL): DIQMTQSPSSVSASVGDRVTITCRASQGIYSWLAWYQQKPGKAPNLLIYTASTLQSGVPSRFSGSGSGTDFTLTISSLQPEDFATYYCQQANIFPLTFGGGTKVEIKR
Sequence of human CD40 expressed on cells (human) (P25942 21-277 limits assumed): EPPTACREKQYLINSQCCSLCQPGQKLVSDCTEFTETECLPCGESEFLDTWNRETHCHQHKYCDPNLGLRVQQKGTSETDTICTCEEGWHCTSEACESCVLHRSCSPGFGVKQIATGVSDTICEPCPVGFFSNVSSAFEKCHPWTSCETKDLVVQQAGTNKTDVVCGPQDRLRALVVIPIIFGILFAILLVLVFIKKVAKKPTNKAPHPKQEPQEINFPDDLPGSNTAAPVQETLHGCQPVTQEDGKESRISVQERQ
Sequence of recombinant human CD40 (ECD)-his (human) (P25942 21-193): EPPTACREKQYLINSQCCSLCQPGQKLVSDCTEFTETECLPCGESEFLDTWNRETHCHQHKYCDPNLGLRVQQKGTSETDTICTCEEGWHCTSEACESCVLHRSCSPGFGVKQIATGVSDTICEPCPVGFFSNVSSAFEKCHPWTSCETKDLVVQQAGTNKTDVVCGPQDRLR
Sequence of recombinant rhesus CD40 (ECD)-hFc (rhesus monkey) (P25942 other isoform, or with tags, fused parts or gaps): as the sequence (P25942 21-193) above, with G43S, H56R, W89L, T92M, A95S, L101P, S106L, H142R, L172Q counted along it
Sequence of rhesus CD40 expressed on HEK293A cells (rhesus monkey) (P25942 other isoform, or with tags, fused parts or gaps limits assumed): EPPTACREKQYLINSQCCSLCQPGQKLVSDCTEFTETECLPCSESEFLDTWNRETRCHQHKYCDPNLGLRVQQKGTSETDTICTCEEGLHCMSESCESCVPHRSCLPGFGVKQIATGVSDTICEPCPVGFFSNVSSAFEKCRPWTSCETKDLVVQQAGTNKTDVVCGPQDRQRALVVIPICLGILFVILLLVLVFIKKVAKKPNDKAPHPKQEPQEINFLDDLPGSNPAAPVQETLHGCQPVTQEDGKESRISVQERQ

EC50 [1]: 0.185 µg/mL
EC50 [2]: 0.0162 µg/mL
EC50 [3]: 0.227 µg/mL
Kd [4]: 1.71 nM
EC50 [5]: 0.0207 µg/mL
HEK Blue EC50 [6]: 0.0233 µg/mL
Substance: RO7009789 (antibody)
